Measured values published in patent US12679878B2, “CRF2 receptor agonists and their use in therapy” (SANOFI, priority 2020, dated 2026).
Starred links: 1 amine or outer side, 2 acyl side, 3 side chain; linkers in the order of their positions; H or OH if unused. Non-standard residues stand in square brackets, D forms with d. Groups on a side chain read outwards from the residue. No end group written: not given here. *: point of attachment. C18 diacid = O=C(O)CCCCCCCCCCCCCCCCC(=O)*; γGlu = O=C(O)[C@H](CCC(=O)[*:2])N[*:1]; AEEA = NCCOCCOCC(=O)O; Aib = CC(C)(N)C(=O)O

T1: CRF1R receptor (anti-target) (UniProt P34998 24-415, limits assumed)
T1 sequence (looked up): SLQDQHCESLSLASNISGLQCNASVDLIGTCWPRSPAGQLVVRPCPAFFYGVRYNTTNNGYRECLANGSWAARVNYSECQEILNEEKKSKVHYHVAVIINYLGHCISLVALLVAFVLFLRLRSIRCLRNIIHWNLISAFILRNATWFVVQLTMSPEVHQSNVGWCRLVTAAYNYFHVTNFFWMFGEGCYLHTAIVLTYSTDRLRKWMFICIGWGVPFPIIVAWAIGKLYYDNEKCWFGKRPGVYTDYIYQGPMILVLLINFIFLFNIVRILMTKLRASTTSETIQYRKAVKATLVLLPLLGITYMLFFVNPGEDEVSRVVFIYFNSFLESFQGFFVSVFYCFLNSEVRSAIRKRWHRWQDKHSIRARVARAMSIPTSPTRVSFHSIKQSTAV

B1: peptide of SEQ ID NO: 134 (peptide)
peptide: IVLSLD[dV]PIKLK([AEEA-AEEA-γGlu-C18 diacid])QILLKQERQK[Aib]QREKAEKNKQILAQV-NH2
modifications: N-terminus assumed
SMILES: CC[C@H](C)[C@H](N)C(=O)N[C@H](C(=O)N[C@@H](CC(C)C)C(=O)N[C@@H](CO)C(=O)N[C@@H](CC(C)C)C(=O)N[C@@H](CC(=O)O)C(=O)N[C@@H](C(=O)N1CCC[C@H]1C(=O)N[C@H](C(=O)N[C@@H](CCCCN)C(=O)N[C@@H](CC(C)C)C(=O)N[C@@H](CCCCNC(=O)COCCOCCNC(=O)COCCOCCNC(=O)CC[C@H](NC(=O)CCCCCCCCCCCCCCCCC(=O)O)C(=O)O)C(=O)N[C@@H](CCC(N)=O)C(=O)N[C@H](C(=O)N[C@@H](CC(C)C)C(=O)N[C@@H](CC(C)C)C(=O)N[C@@H](CCCCN)C(=O)N[C@@H](CCC(N)=O)C(=O)N[C@@H](CCC(=O)O)C(=O)N[C@@H](CCCNC(=N)N)C(=O)N[C@@H](CCC(N)=O)C(=O)N[C@@H](CCCCN)C(=O)NC(C)(C)C(=O)N[C@@H](CCC(N)=O)C(=O)N[C@@H](CCCNC(=N)N)C(=O)N[C@@H](CCC(=O)O)C(=O)N[C@@H](CCCCN)C(=O)N[C@@H](C)C(=O)N[C@@H](CCC(=O)O)C(=O)N[C@@H](CCCCN)C(=O)N[C@@H](CC(N)=O)C(=O)N[C@@H](CCCCN)C(=O)N[C@@H](CCC(N)=O)C(=O)N[C@H](C(=O)N[C@@H](CC(C)C)C(=O)N[C@@H](C)C(=O)N[C@@H](CCC(N)=O)C(=O)N[C@H](C(N)=O)C(C)C)[C@@H](C)CC)[C@@H](C)CC)[C@@H](C)CC)C(C)C)C(C)C
B2: peptide of SEQ ID NO: 148 (peptide)
peptide: IVLSLDVPIGLK([AEEA-AEEA-γGlu-C18 diacid])QILLKQERQKK[Aib]REQAETNKRILERV-NH2
modifications: N-terminus assumed
SMILES: CC[C@H](C)[C@H](N)C(=O)N[C@H](C(=O)N[C@@H](CC(C)C)C(=O)N[C@@H](CO)C(=O)N[C@@H](CC(C)C)C(=O)N[C@@H](CC(=O)O)C(=O)N[C@H](C(=O)N1CCC[C@H]1C(=O)N[C@H](C(=O)NCC(=O)N[C@@H](CC(C)C)C(=O)N[C@@H](CCCCNC(=O)COCCOCCNC(=O)COCCOCCNC(=O)CC[C@H](NC(=O)CCCCCCCCCCCCCCCCC(=O)O)C(=O)O)C(=O)N[C@@H](CCC(N)=O)C(=O)N[C@H](C(=O)N[C@@H](CC(C)C)C(=O)N[C@@H](CC(C)C)C(=O)N[C@@H](CCCCN)C(=O)N[C@@H](CCC(N)=O)C(=O)N[C@@H](CCC(=O)O)C(=O)N[C@@H](CCCNC(=N)N)C(=O)N[C@@H](CCC(N)=O)C(=O)N[C@@H](CCCCN)C(=O)N[C@@H](CCCCN)C(=O)NC(C)(C)C(=O)N[C@@H](CCCNC(=N)N)C(=O)N[C@@H](CCC(=O)O)C(=O)N[C@@H](CCC(N)=O)C(=O)N[C@@H](C)C(=O)N[C@@H](CCC(=O)O)C(=O)N[C@H](C(=O)N[C@@H](CC(N)=O)C(=O)N[C@@H](CCCCN)C(=O)N[C@@H](CCCNC(=N)N)C(=O)N[C@H](C(=O)N[C@@H](CC(C)C)C(=O)N[C@@H](CCC(=O)O)C(=O)N[C@@H](CCCNC(=N)N)C(=O)N[C@H](C(N)=O)C(C)C)[C@@H](C)CC)[C@@H](C)O)[C@@H](C)CC)[C@@H](C)CC)C(C)C)C(C)C
B3: peptide of SEQ ID NO: 150 (peptide)
peptide: IVLSLD[dV]PIGLK([AEEA-AEEA-γGlu-C18 diacid])QILLKQERQKK[Aib]RQQAETNKRILERV-NH2
modifications: N-terminus assumed
SMILES: CC[C@H](C)[C@H](N)C(=O)N[C@H](C(=O)N[C@@H](CC(C)C)C(=O)N[C@@H](CO)C(=O)N[C@@H](CC(C)C)C(=O)N[C@@H](CC(=O)O)C(=O)N[C@@H](C(=O)N1CCC[C@H]1C(=O)N[C@H](C(=O)NCC(=O)N[C@@H](CC(C)C)C(=O)N[C@@H](CCCCNC(=O)COCCOCCNC(=O)COCCOCCNC(=O)CC[C@H](NC(=O)CCCCCCCCCCCCCCCCC(=O)O)C(=O)O)C(=O)N[C@@H](CCC(N)=O)C(=O)N[C@H](C(=O)N[C@@H](CC(C)C)C(=O)N[C@@H](CC(C)C)C(=O)N[C@@H](CCCCN)C(=O)N[C@@H](CCC(N)=O)C(=O)N[C@@H](CCC(=O)O)C(=O)N[C@@H](CCCNC(=N)N)C(=O)N[C@@H](CCC(N)=O)C(=O)N[C@@H](CCCCN)C(=O)N[C@@H](CCCCN)C(=O)NC(C)(C)C(=O)N[C@@H](CCCNC(=N)N)C(=O)N[C@@H](CCC(N)=O)C(=O)N[C@@H](CCC(N)=O)C(=O)N[C@@H](C)C(=O)N[C@@H](CCC(=O)O)C(=O)N[C@H](C(=O)N[C@@H](CC(N)=O)C(=O)N[C@@H](CCCCN)C(=O)N[C@@H](CCCNC(=N)N)C(=O)N[C@H](C(=O)N[C@@H](CC(C)C)C(=O)N[C@@H](CCC(=O)O)C(=O)N[C@@H](CCCNC(=N)N)C(=O)N[C@H](C(N)=O)C(C)C)[C@@H](C)CC)[C@@H](C)O)[C@@H](C)CC)[C@@H](C)CC)C(C)C)C(C)C
B4: peptide of SEQ ID NO: 152 (peptide)
peptide: IVLSLDVPIKLK([AEEA-AEEA-γGlu-C18 diacid])QILLKQERQKK[Aib]REQAETNKRILERV-NH2
modifications: N-terminus assumed
SMILES: CC[C@H](C)[C@H](N)C(=O)N[C@H](C(=O)N[C@@H](CC(C)C)C(=O)N[C@@H](CO)C(=O)N[C@@H](CC(C)C)C(=O)N[C@@H](CC(=O)O)C(=O)N[C@H](C(=O)N1CCC[C@H]1C(=O)N[C@H](C(=O)N[C@@H](CCCCN)C(=O)N[C@@H](CC(C)C)C(=O)N[C@@H](CCCCNC(=O)COCCOCCNC(=O)COCCOCCNC(=O)CC[C@H](NC(=O)CCCCCCCCCCCCCCCCC(=O)O)C(=O)O)C(=O)N[C@@H](CCC(N)=O)C(=O)N[C@H](C(=O)N[C@@H](CC(C)C)C(=O)N[C@@H](CC(C)C)C(=O)N[C@@H](CCCCN)C(=O)N[C@@H](CCC(N)=O)C(=O)N[C@@H](CCC(=O)O)C(=O)N[C@@H](CCCNC(=N)N)C(=O)N[C@@H](CCC(N)=O)C(=O)N[C@@H](CCCCN)C(=O)N[C@@H](CCCCN)C(=O)NC(C)(C)C(=O)N[C@@H](CCCNC(=N)N)C(=O)N[C@@H](CCC(=O)O)C(=O)N[C@@H](CCC(N)=O)C(=O)N[C@@H](C)C(=O)N[C@@H](CCC(=O)O)C(=O)N[C@H](C(=O)N[C@@H](CC(N)=O)C(=O)N[C@@H](CCCCN)C(=O)N[C@@H](CCCNC(=N)N)C(=O)N[C@H](C(=O)N[C@@H](CC(C)C)C(=O)N[C@@H](CCC(=O)O)C(=O)N[C@@H](CCCNC(=N)N)C(=O)N[C@H](C(N)=O)C(C)C)[C@@H](C)CC)[C@@H](C)O)[C@@H](C)CC)[C@@H](C)CC)C(C)C)C(C)C
B5: peptide of SEQ ID NO: 149 (peptide)
peptide: IVLSLD[dV]PIKLK([AEEA-AEEA-γGlu-C18 diacid])QILLKQERQKK[Aib]REQAETNKRILERV-NH2
modifications: N-terminus assumed
SMILES: CC[C@H](C)[C@H](N)C(=O)N[C@H](C(=O)N[C@@H](CC(C)C)C(=O)N[C@@H](CO)C(=O)N[C@@H](CC(C)C)C(=O)N[C@@H](CC(=O)O)C(=O)N[C@@H](C(=O)N1CCC[C@H]1C(=O)N[C@H](C(=O)N[C@@H](CCCCN)C(=O)N[C@@H](CC(C)C)C(=O)N[C@@H](CCCCNC(=O)COCCOCCNC(=O)COCCOCCNC(=O)CC[C@H](NC(=O)CCCCCCCCCCCCCCCCC(=O)O)C(=O)O)C(=O)N[C@@H](CCC(N)=O)C(=O)N[C@H](C(=O)N[C@@H](CC(C)C)C(=O)N[C@@H](CC(C)C)C(=O)N[C@@H](CCCCN)C(=O)N[C@@H](CCC(N)=O)C(=O)N[C@@H](CCC(=O)O)C(=O)N[C@@H](CCCNC(=N)N)C(=O)N[C@@H](CCC(N)=O)C(=O)N[C@@H](CCCCN)C(=O)N[C@@H](CCCCN)C(=O)NC(C)(C)C(=O)N[C@@H](CCCNC(=N)N)C(=O)N[C@@H](CCC(=O)O)C(=O)N[C@@H](CCC(N)=O)C(=O)N[C@@H](C)C(=O)N[C@@H](CCC(=O)O)C(=O)N[C@H](C(=O)N[C@@H](CC(N)=O)C(=O)N[C@@H](CCCCN)C(=O)N[C@@H](CCCNC(=N)N)C(=O)N[C@H](C(=O)N[C@@H](CC(C)C)C(=O)N[C@@H](CCC(=O)O)C(=O)N[C@@H](CCCNC(=N)N)C(=O)N[C@H](C(N)=O)C(C)C)[C@@H](C)CC)[C@@H](C)O)[C@@H](C)CC)[C@@H](C)CC)C(C)C)C(C)C
B6: peptide of SEQ ID NO: 156 (peptide)
peptide: IVLSLDVPIGLK([AEEA-AEEA-γGlu-C18 diacid])QILLKQERQKK[Aib]REQAETNAQILAQV-NH2
modifications: N-terminus assumed
SMILES: CC[C@H](C)[C@H](N)C(=O)N[C@H](C(=O)N[C@@H](CC(C)C)C(=O)N[C@@H](CO)C(=O)N[C@@H](CC(C)C)C(=O)N[C@@H](CC(=O)O)C(=O)N[C@H](C(=O)N1CCC[C@H]1C(=O)N[C@H](C(=O)NCC(=O)N[C@@H](CC(C)C)C(=O)N[C@@H](CCCCNC(=O)COCCOCCNC(=O)COCCOCCNC(=O)CC[C@H](NC(=O)CCCCCCCCCCCCCCCCC(=O)O)C(=O)O)C(=O)N[C@@H](CCC(N)=O)C(=O)N[C@H](C(=O)N[C@@H](CC(C)C)C(=O)N[C@@H](CC(C)C)C(=O)N[C@@H](CCCCN)C(=O)N[C@@H](CCC(N)=O)C(=O)N[C@@H](CCC(=O)O)C(=O)N[C@@H](CCCNC(=N)N)C(=O)N[C@@H](CCC(N)=O)C(=O)N[C@@H](CCCCN)C(=O)N[C@@H](CCCCN)C(=O)NC(C)(C)C(=O)N[C@@H](CCCNC(=N)N)C(=O)N[C@@H](CCC(=O)O)C(=O)N[C@@H](CCC(N)=O)C(=O)N[C@@H](C)C(=O)N[C@@H](CCC(=O)O)C(=O)N[C@H](C(=O)N[C@@H](CC(N)=O)C(=O)N[C@@H](C)C(=O)N[C@@H](CCC(N)=O)C(=O)N[C@H](C(=O)N[C@@H](CC(C)C)C(=O)N[C@@H](C)C(=O)N[C@@H](CCC(N)=O)C(=O)N[C@H](C(N)=O)C(C)C)[C@@H](C)CC)[C@@H](C)O)[C@@H](C)CC)[C@@H](C)CC)C(C)C)C(C)C

Molecular target: T1, CRF1R receptor (anti-target)
Experiment: cell-based or functional assay

Row | Binder | EC50 [nM] 0% HSA (cAMP, HTRF) | Emax (%) (100% = Sauvagine at 100 nM)
1 | B1 | > 100 nM | -8.6%
2 | B2 | > 100 nM | 2.6%
3 | B3 | > 100 nM | 7.2%
4 | B4 | > 100 nM | 4.9%
5 | B5 | > 100 nM | 6.6%
6 | B6 | > 100 nM | 4%
